Measurements as given in patent US20250353911A1 (INHIBRX BIOSCIENCES, published 2025).
Residue numbers refer to the chain shown, from its start.

B1: 4A01v4 (Fc fusion, not shown: a dimerising Fc or GST; small tags and cut ends)
VHH: EVQLVESGGGEVQPGGSLRLSCAASGFAFSTSGMVWVRQAPGKGLEWVSTISDESRIIRYAESVKGRFTISRDNAKNTLYLQMNSLRAEDTAVYYCATYRAGSRIGSYEDYYRGQGTLVTVKP
notes: also called Hz4A01v4
B2: 4A01v5 (Fc fusion, not shown: a dimerising Fc or GST; small tags and cut ends)
VHH: B1 VHH with S55G
notes: also called Hz4A01v5
B3: 4A01v8 (Fc fusion, not shown: a dimerising Fc or GST; small tags and cut ends)
VHH: B1 VHH with E54N, S55A
notes: also called Hz4A01v8
B4: 4A01v3 (Fc fusion)
VHH: B1 VHH with E54D, S55A
notes: also called Hz4A01v3; not shown: Human Fc carrier and its linker
B5: 4A01v3-8 (Fc fusion)
VHH: B1 VHH with E54D, S55A, R113W
notes: also called Hz4A01v3-8; not shown: Human Fc carrier and its linker
B6: 4A01v3-4 (Fc fusion)
VHH: B1 VHH with V35S, E54D, S55A
notes: also called Hz4A01v3-4; not shown: Human Fc carrier and its linker
B7: 4A01v3-1 (Fc fusion, not shown: a dimerising Fc or GST; small tags and cut ends)
VHH: B1 VHH with A28T, E54D, S55A
notes: also called Hz4A01v3-1
B8: 4A01v3-3 (Fc fusion, not shown: a dimerising Fc or GST; small tags and cut ends)
VHH: B1 VHH with V35A, E54D, S55A
notes: also called Hz4A01v3-3
B9: 4A01v9 (Fc fusion, not shown: a dimerising Fc or GST; small tags and cut ends)
VHH: B1 VHH with E54D, S55T
notes: also called Hz4A01v9
B10: 4A01v3-7 (Fc fusion)
VHH: B1 VHH with E54D, S55A, L79V
notes: also called Hz4A01v3-7; not shown: Human Fc carrier and its linker
B11: 4A01v3-5 (Fc fusion)
VHH: B1 VHH with V37Y, E54D, S55A
notes: also called Hz4A01v3-5; not shown: Human Fc carrier and its linker
B12: 4A01v1 (Fc fusion)
VHH: B1 VHH with E54D
notes: also called Hz4A01v1; not shown: Human Fc carrier and its linker

The binders below were run against T1, Murine serum albumin (MSA) (mouse, UniProt P07724 25-608) (assay: ELISA on coated murine albumin, anti-human Fc HRP, A650, one site-total binding fit).
T1 construct: Bought protein (Sigma); also called murine albumin; mouse albumin
Method: (§1) Medisorp plates were coated with albumin protein at 2 μg/ml, 50 μl/well at 4° C. overnight (human, murine, and rat albumin-Sigma, cynomolgus monkey albumin-Abcam). 1× Fish Gelatin (blocking agent, Bethyl Laboratories) was added to albumin-coated wells followed by a 1 hour incubation at RT. Titrations of sdAb fusion proteins (starting at 100 nM, across 1:3 or down 1:4) were added and incubated for 1 hour at RT. Plates were washed 3 times with 0.1% D-PBST, and then anti-human Fc HRP antibody (1:2000 in 0.1% D-PBST, Jackson) was added and incubated for 30 minutes at RT. Plates were washed 3 times with 0.1% D-PBST, and then TMB substrate was added. Absorbance at 650 nm was read on a plate reader (Molecular Devices) and data were plotted using equation one site-total binding (Model: Y=Bmax*X/(Kd+X)+NS*X+Background, GraphPad Prism).

First: B1
Second: B2
The Bmax of the first is higher: 1.1 A650 for the first, 1.09 A650 for the second.

B3 showed a Bmax of 1.1 A650.

B1 and B2 are within 1.5-fold of each other in Kd: 0.25 nM for the first, 0.189 nM for the second.

For B3, the Kd was 0.226 nM.

Each binder was assayed against T2, Rat serum albumin (RSA) (rat, UniProt P02770 25-608) (assay: ELISA on coated rat albumin, anti-human Fc HRP, A650, one site-total binding fit).
T2 construct: Bought protein (Sigma); also called rat albumin
T2 sequence (P02770 25-608): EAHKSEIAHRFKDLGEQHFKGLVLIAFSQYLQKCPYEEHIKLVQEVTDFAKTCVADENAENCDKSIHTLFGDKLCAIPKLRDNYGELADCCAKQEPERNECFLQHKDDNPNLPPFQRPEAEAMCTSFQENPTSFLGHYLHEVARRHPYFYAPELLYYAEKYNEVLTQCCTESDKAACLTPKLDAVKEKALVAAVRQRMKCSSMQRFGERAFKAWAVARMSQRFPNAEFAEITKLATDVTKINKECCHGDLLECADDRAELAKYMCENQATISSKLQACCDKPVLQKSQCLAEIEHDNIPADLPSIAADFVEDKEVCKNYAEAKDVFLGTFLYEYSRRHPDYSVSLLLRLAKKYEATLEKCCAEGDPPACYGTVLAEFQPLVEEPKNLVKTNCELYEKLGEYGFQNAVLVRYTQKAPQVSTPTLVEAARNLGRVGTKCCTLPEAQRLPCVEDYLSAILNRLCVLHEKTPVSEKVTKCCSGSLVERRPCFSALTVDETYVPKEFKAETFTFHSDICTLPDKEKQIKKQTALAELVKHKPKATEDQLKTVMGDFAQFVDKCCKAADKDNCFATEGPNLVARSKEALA
Method: as §1

Compared with B1, B2 is higher in Bmax: 0.972 A650 for the first, 1 A650 for the second.

With B3 the Bmax was 1.01 A650.

B1 and B2 are within 1.5-fold of each other in Kd: 0.32 nM for the first, 0.26 nM for the second.

Binder B3 has a Kd of 0.328 nM.

Each binder was assayed against T3, Cynomolgus monkey serum albumin (CSA) (cynomolgus monkey, UniProt A2V9Z4 25-608) (assay: ELISA on coated cynomolgus monkey albumin, anti-human Fc HRP, A650, one site-total binding fit).
T3 construct: Bought protein (Abcam); also called cynomolgus monkey albumin
T3 sequence (A2V9Z4 25-608): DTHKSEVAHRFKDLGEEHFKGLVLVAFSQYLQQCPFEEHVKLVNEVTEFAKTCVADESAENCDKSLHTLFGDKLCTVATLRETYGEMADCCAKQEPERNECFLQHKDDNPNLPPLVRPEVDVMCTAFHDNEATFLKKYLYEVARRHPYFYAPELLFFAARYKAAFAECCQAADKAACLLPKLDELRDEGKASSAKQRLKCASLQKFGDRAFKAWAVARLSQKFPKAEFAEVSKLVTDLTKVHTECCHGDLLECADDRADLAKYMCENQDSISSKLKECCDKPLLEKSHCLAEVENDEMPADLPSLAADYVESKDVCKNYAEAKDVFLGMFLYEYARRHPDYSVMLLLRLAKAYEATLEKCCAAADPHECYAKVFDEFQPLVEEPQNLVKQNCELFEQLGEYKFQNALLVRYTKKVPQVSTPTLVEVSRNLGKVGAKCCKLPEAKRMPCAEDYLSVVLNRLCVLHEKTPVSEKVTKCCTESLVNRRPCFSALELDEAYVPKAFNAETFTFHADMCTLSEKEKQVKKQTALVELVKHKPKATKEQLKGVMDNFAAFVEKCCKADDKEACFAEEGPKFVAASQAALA
Method: as §1

First: B4
Second: B1
The Bmax of the first is higher: 0.994 A650 for the first, 0.954 A650 for the second.

B2 showed a Bmax of 0.939 A650.

B4 and B1 are within 1.5-fold of each other in Kd: 0.338 nM for the first, 0.247 nM for the second.

In the case of B2, the Kd is reported as 0.203 nM.

Target: T2, Rat serum albumin (RSA)
Assay: ELISA on coated rat albumin, anti-human Fc HRP, A650, one site-total binding fit
Remark: another data set of the same source
Method: as §1

B4 and B5 are within 1.5-fold of each other in Kd: 0.162 nM for the first, 0.169 nM for the second.

Going from B6 to B7, the Kd falls from 0.252 nM to 0.13 nM (1.9-fold). The second binds more tightly here.

B8 and B9 are within 1.5-fold of each other in Kd: 0.152 nM for the first, 0.144 nM for the second.

B10 and B11 are within 1.5-fold of each other in Kd: 0.123 nM for the first, 0.162 nM for the second.

With B12 the Kd was 0.184 nM.

Going from B6 to B7, the Bmax falls from 1.41 A650 to 1.28 A650.

Going from B8 to B9, the Bmax falls from 1.32 A650 to 1.27 A650.

B10 and B11 are the same in Bmax: 1.35 A650 for the first, 1.35 A650 for the second.

B12 was tested, and the Bmax was 1.28 A650.

Target: T1, Murine serum albumin (MSA)
Assay: ELISA on coated murine albumin, anti-human Fc HRP, A650, one site-total binding fit
Remark: another data set of the same source
Method: as §1

B4 and B5 are within 1.5-fold of each other in Kd: 0.121 nM for the first, 0.143 nM for the second.

First: B6
Second: B7
The Kd of the first is 2.2-fold higher: 0.241 nM for the first, 0.109 nM for the second. The second binds more tightly here.

B8 and B9 are within 1.5-fold of each other in Kd: 0.142 nM for the first, 0.112 nM for the second.

B10 and B11 are within 1.5-fold of each other in Kd: 0.111 nM for the first, 0.112 nM for the second.

B12 showed a Kd of 0.129 nM.

First: B6
Second: B7
The Bmax of the first is higher: 1.4 A650 for the first, 1.29 A650 for the second.

Going from B8 to B9, the Bmax falls from 1.35 A650 to 1.3 A650.

First: B10
Second: B11
The Bmax of the first is higher: 1.32 A650 for the first, 1.31 A650 for the second.

In the case of B12, the Bmax is reported as 1.35 A650.

Target: T3, Cynomolgus monkey serum albumin (CSA)
Assay: ELISA on coated cynomolgus monkey albumin, anti-human Fc HRP, A650, one site-total binding fit
Remark: another data set of the same source
Method: as §1

Compared with B5, B6 is higher in Bmax: 1.35 A650 for the first, 1.37 A650 for the second.

Compared with B7, B8 is higher in Bmax: 1.29 A650 for the first, 1.35 A650 for the second.

First: B9
Second: B10
The Bmax of the first is lower: 1.29 A650 for the first, 1.31 A650 for the second.

Going from B11 to B12, the Bmax falls from 1.34 A650 to 1.31 A650.

B5 and B6 are within 1.5-fold of each other in Kd: 0.147 nM for the first, 0.181 nM for the second.

B7 and B8 are within 1.5-fold of each other in Kd: 0.127 nM for the first, 0.142 nM for the second.

B9 and B10 are within 1.5-fold of each other in Kd: 0.117 nM for the first, 0.118 nM for the second.

B11 and B12 are within 1.5-fold of each other in Kd: 0.126 nM for the first, 0.157 nM for the second.

The binders below were run against T4, Human serum albumin (HSA) (human, UniProt P02768 25-609) (assay: ELISA on coated human albumin, anti-human Fc HRP, A650, one site-total binding fit).
T4 construct: also called human albumin; recombinant human albumin
T4 sequence (P02768 25-609): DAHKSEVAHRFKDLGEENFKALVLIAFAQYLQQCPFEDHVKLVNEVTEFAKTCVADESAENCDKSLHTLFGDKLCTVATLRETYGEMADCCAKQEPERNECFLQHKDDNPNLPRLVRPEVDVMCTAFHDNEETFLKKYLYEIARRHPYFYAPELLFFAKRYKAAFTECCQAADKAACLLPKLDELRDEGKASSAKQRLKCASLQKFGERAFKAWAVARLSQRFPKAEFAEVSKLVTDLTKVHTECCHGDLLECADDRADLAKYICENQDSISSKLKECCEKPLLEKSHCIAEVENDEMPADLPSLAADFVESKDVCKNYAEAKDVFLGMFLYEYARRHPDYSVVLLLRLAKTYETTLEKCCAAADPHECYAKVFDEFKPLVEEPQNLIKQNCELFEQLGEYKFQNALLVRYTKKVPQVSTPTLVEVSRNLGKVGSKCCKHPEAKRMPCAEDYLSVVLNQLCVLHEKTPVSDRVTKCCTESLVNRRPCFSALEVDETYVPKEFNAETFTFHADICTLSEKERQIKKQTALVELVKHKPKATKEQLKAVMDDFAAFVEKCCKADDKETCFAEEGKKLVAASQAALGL
Method: as §1

Compared with B1, B2 is higher in Bmax: 0.947 A650 for the first, 0.957 A650 for the second.

B3 showed a Bmax of 0.955 A650.

B1 and B2 are within 1.5-fold of each other in Kd: 0.378 nM for the first, 0.276 nM for the second.

With B3 the Kd was 0.428 nM.

Target: T4, Human serum albumin (HSA)
Assay: as above
Remark: another data set of the same source
Method: as §1

B4 and B5 are within 1.5-fold of each other in Kd: 0.124 nM for the first, 0.136 nM for the second.

B6 and B7 are within 1.5-fold of each other in Kd: 0.151 nM for the first, 0.123 nM for the second.

B8 and B9 are within 1.5-fold of each other in Kd: 0.129 nM for the first, 0.115 nM for the second.

B10 and B11 are the same in Kd: 0.121 nM for the first, 0.121 nM for the second.

With B12 the Kd was 0.139 nM.

Going from B6 to B7, the Bmax falls from 1.43 A650 to 1.32 A650.

Going from B8 to B9, the Bmax falls from 1.36 A650 to 1.35 A650.

Compared with B10, B11 is lower in Bmax: 1.4 A650 for the first, 1.39 A650 for the second.

B12 showed a Bmax of 1.34 A650.
